First the molecules themselves.
B1: Cys46-Ser64 peptide of hMRP5 (peptide)
peptide: CQDALETAARAEGLSLDAS
B2: Arg40-Arg70 peptide of hMRP5 (peptide)
peptide: RTRPLECQDALETAARAEGLSLDASMHSQLR
B3: Asp35-Glu75 peptide of hMRP5 (peptide)
peptide: DSKFRRTRPLECQDALETAARAEGLSLDASMHSQLRILDEE
B4: MRP5 potential peptide inhibitor (M5PI) (peptide)
peptide: CSKFRRTRPLECQDALETAARAEGLSLDASMHSQLRILDEC
B5: Asp5-Ser25 peptide of hMRP5 (peptide)
peptide: DIGKEYIIPSPGYRSVRERTS

Experimental findings from article PMC11156954 (2024) are described below.

For this assay, the target named is hMRP5-Δ1-94-8xHis (human, UniProt O15440 95-1437, RED-tris-NTA 2nd Generation dye on the His tag). In words: MST.
Sequence of hMRP5-Δ1-94-8xHis (O15440 95-1437, stated change not applied): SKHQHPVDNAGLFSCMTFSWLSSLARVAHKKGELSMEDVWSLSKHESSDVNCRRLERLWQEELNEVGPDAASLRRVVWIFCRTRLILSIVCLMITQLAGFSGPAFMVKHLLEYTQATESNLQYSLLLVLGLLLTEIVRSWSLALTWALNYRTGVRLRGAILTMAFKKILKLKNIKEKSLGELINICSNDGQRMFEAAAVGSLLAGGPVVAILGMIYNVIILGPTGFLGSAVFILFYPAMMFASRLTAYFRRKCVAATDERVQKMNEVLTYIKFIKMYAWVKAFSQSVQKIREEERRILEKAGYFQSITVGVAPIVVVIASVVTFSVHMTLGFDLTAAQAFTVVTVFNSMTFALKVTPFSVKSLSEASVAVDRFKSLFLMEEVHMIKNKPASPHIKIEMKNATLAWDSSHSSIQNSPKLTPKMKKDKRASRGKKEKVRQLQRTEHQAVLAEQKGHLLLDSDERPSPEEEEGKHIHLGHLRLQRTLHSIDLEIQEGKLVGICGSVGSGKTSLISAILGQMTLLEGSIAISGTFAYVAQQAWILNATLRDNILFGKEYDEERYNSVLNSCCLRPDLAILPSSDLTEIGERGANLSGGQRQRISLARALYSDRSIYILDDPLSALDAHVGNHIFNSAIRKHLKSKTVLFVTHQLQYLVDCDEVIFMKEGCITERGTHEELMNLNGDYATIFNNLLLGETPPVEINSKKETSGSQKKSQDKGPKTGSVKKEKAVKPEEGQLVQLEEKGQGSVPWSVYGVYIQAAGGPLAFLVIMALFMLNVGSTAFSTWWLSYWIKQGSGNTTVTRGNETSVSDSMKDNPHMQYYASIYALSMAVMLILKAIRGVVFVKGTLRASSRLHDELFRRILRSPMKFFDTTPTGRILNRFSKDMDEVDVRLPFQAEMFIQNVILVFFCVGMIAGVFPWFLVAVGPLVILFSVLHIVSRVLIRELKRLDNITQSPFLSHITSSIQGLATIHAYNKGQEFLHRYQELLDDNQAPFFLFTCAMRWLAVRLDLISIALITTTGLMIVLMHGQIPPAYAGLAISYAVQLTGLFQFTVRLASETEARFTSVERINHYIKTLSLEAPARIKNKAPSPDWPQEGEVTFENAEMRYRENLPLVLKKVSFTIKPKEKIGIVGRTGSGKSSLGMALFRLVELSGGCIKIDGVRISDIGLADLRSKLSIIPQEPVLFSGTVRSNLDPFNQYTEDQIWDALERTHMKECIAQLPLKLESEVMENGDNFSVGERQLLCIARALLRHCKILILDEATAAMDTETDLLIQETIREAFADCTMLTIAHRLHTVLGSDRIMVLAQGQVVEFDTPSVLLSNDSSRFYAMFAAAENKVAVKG
On to B1, for which the equilibrium dissociation constant (Kd) – broadly, the concentration at which binding is half-saturated – amounted to 24.1 µM.

In turn, B2 had a Kd of 50.7 µM. Compared with the last molecule, the Kd is about 2.1-fold higher.

Molecule B3 had a Kd of 34.6 µM. This Kd and that of the molecule before are within 1.5-fold of each other.

Turning to B4, the affinity, expressed as Kd, was 2.66 µM.

For B5, the Kd is 24.4 µM.
